Data reported in PMC10980035 (bioRxiv, 2024).

Tests used:
[1] = target: T1, Retriever complex (VPS35L, VPS26C, VPS29) (human, UniProt Q7Z3J2 1-963; O14972 1-297; Q9UBQ0-2 1-186); test: pull-down
[2] = target: T1, Retriever complex (VPS35L, VPS26C, …); test: pull-down; remark: listed apart in the source

T1 sequence (Q7Z3J2 whole entry, chain 1 of 2): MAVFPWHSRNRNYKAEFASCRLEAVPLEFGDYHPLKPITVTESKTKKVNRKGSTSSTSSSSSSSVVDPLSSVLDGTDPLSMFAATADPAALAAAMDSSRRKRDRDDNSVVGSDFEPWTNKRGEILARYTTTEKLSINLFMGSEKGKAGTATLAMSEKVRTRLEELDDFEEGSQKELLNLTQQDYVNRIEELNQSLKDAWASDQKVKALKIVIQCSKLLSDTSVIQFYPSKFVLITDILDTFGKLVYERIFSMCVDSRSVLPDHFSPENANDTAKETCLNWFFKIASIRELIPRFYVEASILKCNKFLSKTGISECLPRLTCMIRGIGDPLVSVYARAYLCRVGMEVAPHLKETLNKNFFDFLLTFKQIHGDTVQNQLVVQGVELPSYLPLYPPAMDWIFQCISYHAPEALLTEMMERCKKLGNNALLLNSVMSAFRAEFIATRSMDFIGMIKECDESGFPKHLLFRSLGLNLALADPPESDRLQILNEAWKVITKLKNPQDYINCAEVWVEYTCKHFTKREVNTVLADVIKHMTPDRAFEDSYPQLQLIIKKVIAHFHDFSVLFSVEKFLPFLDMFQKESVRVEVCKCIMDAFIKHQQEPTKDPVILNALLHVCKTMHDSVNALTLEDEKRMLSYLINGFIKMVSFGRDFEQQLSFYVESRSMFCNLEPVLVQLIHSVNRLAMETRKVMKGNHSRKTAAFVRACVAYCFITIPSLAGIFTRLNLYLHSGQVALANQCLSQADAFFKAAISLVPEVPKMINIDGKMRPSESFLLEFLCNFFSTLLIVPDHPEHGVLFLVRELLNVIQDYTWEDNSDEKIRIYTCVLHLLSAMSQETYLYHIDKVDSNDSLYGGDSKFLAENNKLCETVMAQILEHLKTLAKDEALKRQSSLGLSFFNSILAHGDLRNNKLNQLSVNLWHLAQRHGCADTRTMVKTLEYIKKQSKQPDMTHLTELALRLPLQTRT
T1 sequence (O14972 whole entry, chain 2 of 2): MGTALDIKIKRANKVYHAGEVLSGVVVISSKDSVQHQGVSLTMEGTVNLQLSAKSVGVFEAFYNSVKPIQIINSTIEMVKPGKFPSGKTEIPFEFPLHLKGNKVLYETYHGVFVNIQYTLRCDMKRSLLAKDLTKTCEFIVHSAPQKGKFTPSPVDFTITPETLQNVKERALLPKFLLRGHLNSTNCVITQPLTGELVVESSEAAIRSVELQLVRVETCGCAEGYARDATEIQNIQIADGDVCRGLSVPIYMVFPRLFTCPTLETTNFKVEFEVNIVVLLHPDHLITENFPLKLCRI

Binder | Kd [1] | binding result [2]
ASASDVHGNFAFEGIGDEDL [GST-SNX17 CT (GST-tagged tail peptide, last 20 residues of SNX17)] | ~110 nM | 
SVYLVNFRCCRSHDLCNEDL [GST-tagged CT acidic tail of PATE1 (last 20 amino acids)] |  | binds
SKIKIAKDDCVFGNIKEEDL [GST-tagged CT acidic tail of SNX31 (last 20 amino acids)] |  | binds
